From patent US20220411483A1 (Chugai, published 2022)
Where a chain is given by its changes, count along the chain named. Each block holds one binder with its values, some of them ahead of it.

Key:
[1] = biological target: T1, FcgRIIb (human, UniProt P31994 43-217); assay: SPR, amount bound per captured antibody
T1 construct: extracellular domain; also called FcγRIIb
T1 sequence (looked up): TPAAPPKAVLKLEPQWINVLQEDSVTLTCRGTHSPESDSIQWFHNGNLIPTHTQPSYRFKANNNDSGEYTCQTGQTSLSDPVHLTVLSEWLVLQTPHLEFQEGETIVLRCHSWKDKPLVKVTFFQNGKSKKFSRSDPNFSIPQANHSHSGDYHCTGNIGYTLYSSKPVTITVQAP

[2] = biological target: T2, FcgRIIaR (human, UniProt P12318 34-217); assay: SPR, amount bound per captured antibody
T2 construct: extracellular domain; also called FcγRIIa R type; FcγRIIa (R type)
T2 sequence (looked up): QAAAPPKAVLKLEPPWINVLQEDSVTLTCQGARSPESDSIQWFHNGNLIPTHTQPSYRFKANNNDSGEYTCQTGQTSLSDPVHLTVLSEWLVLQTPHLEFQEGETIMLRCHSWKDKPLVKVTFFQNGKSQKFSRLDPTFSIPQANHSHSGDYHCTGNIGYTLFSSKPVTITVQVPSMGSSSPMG

[3] = biological target: T3, human FcγRIIb extracellular domain with C-terminal His tag (human, UniProt P31994 43-217); assay: SPR, antibody captured, FcgR analyte
T3 construct: extracellular domain; also called FcgRIIb
T3 sequence (looked up): T1 sequence (looked up)

[4] = biological target: T4, human FcγRIa extracellular domain with C-terminal His tag (human, UniProt P12314 16-292); assay: SPR, antibody captured, FcgR analyte
T4 construct: Whole entry named; also called FcgRIa

[5] = biological target: T5, human FcγRIIa R type extracellular domain with C-terminal His tag (human, UniProt P12318 34-217); assay: SPR, antibody captured, FcgR analyte
T5 construct: extracellular domain; also called FcgRIIaR
T5 sequence (looked up): T2 sequence (looked up)

[6] = biological target: T3, human FcγRIIb extracellular domain with …; assay: SPR, KD of IL6R-G1d/IL6R-L divided by KD of variant
[7] = biological target: T4, human FcγRIa extracellular domain with …; assay: as above
[8] = biological target: T6, human FcγRIIIa V type extracellular domain with C-terminal His tag (human, UniProt P08637 17-208); assay: as above
T6 construct: extracellular domain; also called FcgRIIIaV

[9] = biological target: T5, human FcγRIIa R type extracellular …; assay: as above
[10] = biological target: T7, human FcγRIIa H type extracellular domain with C-terminal His tag (human, UniProt P12318 34-217); assay: as above
T7 construct: extracellular domain; also called FcgRIIaH
T7 sequence (looked up): T2 sequence (looked up) with R134H

T4 sequence (P12314 16-292): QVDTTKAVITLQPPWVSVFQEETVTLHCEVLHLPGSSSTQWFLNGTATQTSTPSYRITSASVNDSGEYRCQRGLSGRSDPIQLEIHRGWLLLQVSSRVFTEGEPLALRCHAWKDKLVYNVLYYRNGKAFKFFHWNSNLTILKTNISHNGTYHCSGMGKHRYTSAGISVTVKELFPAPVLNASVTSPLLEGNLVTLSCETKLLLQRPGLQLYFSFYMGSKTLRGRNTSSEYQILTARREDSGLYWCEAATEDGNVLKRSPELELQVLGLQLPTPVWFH
T6 sequence (P08637 17-208 F176V): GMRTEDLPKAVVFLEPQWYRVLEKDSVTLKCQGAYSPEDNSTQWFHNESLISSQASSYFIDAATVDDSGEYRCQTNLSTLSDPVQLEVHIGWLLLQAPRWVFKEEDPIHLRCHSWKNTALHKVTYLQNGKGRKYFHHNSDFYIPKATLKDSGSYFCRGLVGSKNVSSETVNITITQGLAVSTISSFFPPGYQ

Relative FcgRIIb-binding Activity [1]: 7.7 IL6R-G1d/IL6R-L=100
Relative FcgRIIaR-binding Activity [2]: 4.8 IL6R-G1d/IL6R-L=100
B1: IL6R-P606/IL6R-L (antibody, human IgG1, kappa)
heavy: QVQLQESGPGLVKPSETLSLTCAVSGHSISHDHAWSWVRQPPGEGLEWIGFISYSGITNYNPSLQGRVTISRDNSKNTLYLQMNSLRAEDTAVYYCARSLARTTAMDYWGEGTLVTVSSASTKGPSVFPLAPSSKSTSGGTAALGCLVKDYFPEPVTVSWNSGALTSGVHTFPAVLQSSGLYSLSSVVTVPSSSLGTQTYICNVNHKPSNTKVDKKVEPKSCDKTHTCPPCPAPDLLGGDKVFLFPPKPKDTLMISRTPEVTCVVIDVAEEDGEVKFNWYVDGVEVHNAKTKPREEQYNSTYRVVSVLTVLHQDWLNGKEYKCKVSNKALPAPIEKTISKAKGQPREPQVYTLPPSRDELTKNQVSLTCLVKGFYPSDIAVEWESNGQPENNYKTTPPVLDSDGSFFLYSKLTVDKSRWQQGNVFSCSVMHEALHNHYTQKSLSLSP
light: not shown

Relative FcgRIIb-binding Activity [1]: 176 IL6R-G1d/IL6R-L=100
Relative FcgRIIaR-binding Activity [2]: 48.1 IL6R-G1d/IL6R-L=100
B2: IL6R-P628/IL6R-L (antibody, human IgG1, kappa)
heavy: B1 heavy with G239R, K241S
light: not shown

Relative FcgRIIb-binding Activity [1]: 152 IL6R-G1d/IL6R-L=100
Relative FcgRIIaR-binding Activity [2]: 44.7 IL6R-G1d/IL6R-L=100
B3: IL6R-P623/IL6R-L (antibody, human IgG1, kappa)
heavy: B1 heavy with L236H, K241S
light: not shown

Relative FcgRIIb-binding Activity [1]: 178 IL6R-G1d/IL6R-L=100
Relative FcgRIIaR-binding Activity [2]: 82.6 IL6R-G1d/IL6R-L=100
B4: IL6R-P609/IL6R-L (antibody, human IgG1, kappa)
heavy: B1 heavy with L236A, K241S
light: not shown

Relative FcgRIIb-binding Activity [1]: 138 IL6R-G1d/IL6R-L=100
Relative FcgRIIaR-binding Activity [2]: 48.5 IL6R-G1d/IL6R-L=100
B5: IL6R-P627/IL6R-L (antibody, human IgG1, kappa)
heavy: B1 heavy with G238Q, K241S
light: not shown

Kd [3]: 52 nM
Kd [4]: 1.6 nM
Kd [5]: 1.9 µM
Relative FcgRIIb-binding Activity [6]: 40.4
Relative FcgRIa-binding Activity [7]: 0.2
Relative FcgRIIIaV-binding Activity [8]: 0.007
Relative FcgRIIaR-binding Activity [9]: 0.58
Relative FcgRIIaH-binding Activity [10]: 0.008
B6: IL6R-P777/IL6R-L (antibody, human IgG1, kappa)
heavy: B1 heavy with K241S, K324A
light: not shown

Relative FcgRIIb-binding Activity [1]: 120 IL6R-G1d/IL6R-L=100
Relative FcgRIIaR-binding Activity [2]: 61.2 IL6R-G1d/IL6R-L=100
B7: IL6R-P613/IL6R-L (antibody, human IgG1, kappa)
heavy: B1 heavy with L237A, K241S
light: not shown

Relative FcgRIIb-binding Activity [1]: 173 IL6R-G1d/IL6R-L=100
Relative FcgRIIaR-binding Activity [2]: 67.1 IL6R-G1d/IL6R-L=100
B8: IL6R-P624/IL6R-L (antibody, human IgG1, kappa)
heavy: B1 heavy with L236N, K241S
light: not shown

Kd [3]: 25 nM
Kd [4]: 0.96 nM
Kd [5]: 1.3 µM
Relative FcgRIIb-binding Activity [6]: 84
Relative FcgRIa-binding Activity [7]: 0.333
Relative FcgRIIIaV-binding Activity [8]: 0.009
Relative FcgRIIaR-binding Activity [9]: 0.85
Relative FcgRIIaH-binding Activity [10]: 0.01
B9: IL6R-P778/IL6R-L (antibody, human IgG1, kappa)
heavy: B1 heavy with K241S, K324E
light: not shown

Kd [3]: 50 nM
Kd [4]: 3.4 nM
Kd [5]: 2.2 µM
Relative FcgRIIb-binding Activity [6]: 42
Relative FcgRIa-binding Activity [7]: 0.094
Relative FcgRIIIaV-binding Activity [8]: 0.011
Relative FcgRIIaR-binding Activity [9]: 0.5
Relative FcgRIIaH-binding Activity [10]: 0.009
B10: IL6R-P779/IL6R-L (antibody, human IgG1, kappa)
heavy: B1 heavy with D235E, K241S, K324A
light: not shown

Relative FcgRIIb-binding Activity [1]: 183 IL6R-G1d/IL6R-L=100
Relative FcgRIIaR-binding Activity [2]: 107 IL6R-G1d/IL6R-L=100
B11: IL6R-P611/IL6R-L (antibody, human IgG1, kappa)
heavy: B1 heavy with L236A, G239D, K241S, Y298D, A332R, P398M
light: not shown

Kd [3]: 34 nM
Kd [4]: 2.1 nM
Kd [5]: 1.7 µM
Relative FcgRIIb-binding Activity [6]: 61.8
Relative FcgRIa-binding Activity [7]: 0.152
Relative FcgRIIIaV-binding Activity [8]: 0.008
Relative FcgRIIaR-binding Activity [9]: 0.65
Relative FcgRIIaH-binding Activity [10]: 0.008
B12: IL6R-P780/IL6R-L (antibody, human IgG1, kappa)
heavy: B1 heavy with D235E, K241S, K324E
light: not shown

Relative FcgRIIb-binding Activity [1]: 21.8 IL6R-G1d/IL6R-L=100
Relative FcgRIIaR-binding Activity [2]: 6.1 IL6R-G1d/IL6R-L=100
B13: IL6R-P607/IL6R-L (antibody, human IgG1, kappa)
heavy: B1 heavy with G239D, Y298D, A332R, P398M
light: not shown

Kd [3]: 9000 nM
Kd [4]: 17 nM
Kd [5]: 11 µM
Relative FcgRIIb-binding Activity [6]: 0.2
Relative FcgRIa-binding Activity [7]: 0.019
Relative FcgRIIIaV-binding Activity [8]: 0.007
Relative FcgRIIaR-binding Activity [9]: 0.1
Relative FcgRIIaH-binding Activity [10]: 0.003
B14: IL6R-P781/IL6R-L (antibody, human IgG1, kappa)
heavy: B1 heavy with D235E, K241S, I266V, A269S, E270H, G273P, S300A, A329G, A332S, P333S
light: not shown

Relative FcgRIIb-binding Activity [1]: 56.4 IL6R-G1d/IL6R-L=100
Relative FcgRIIaR-binding Activity [2]: 15.3 IL6R-G1d/IL6R-L=100
B15: IL6R-P633/IL6R-L (antibody, human IgG1, kappa)
heavy: B1 heavy with K241S, D267S
light: not shown

Relative FcgRIIb-binding Activity [1]: 158 IL6R-G1d/IL6R-L=100
Relative FcgRIIaR-binding Activity [2]: 49.2 IL6R-G1d/IL6R-L=100
B16: IL6R-P617/IL6R-L (antibody, human IgG1, kappa)
heavy: B1 heavy with L236A, L237A, G239D, K241S, Y298D, A332R, P398M
light: not shown

Relative FcgRIIb-binding Activity [1]: 7.1 IL6R-G1d/IL6R-L=100
Relative FcgRIIaR-binding Activity [2]: 4.1 IL6R-G1d/IL6R-L=100
B17: IL6R-P630/IL6R-L (antibody, human IgG1, kappa)
heavy: B1 heavy with K241S, D267K
light: not shown

Kd [3]: 3600 nM
Kd [4]: 30 nM
Kd [5]: 37 µM
Relative FcgRIIb-binding Activity [6]: 0.6
Relative FcgRIa-binding Activity [7]: 0.011
Relative FcgRIIIaV-binding Activity [8]: 0.006
Relative FcgRIIaR-binding Activity [9]: 0.03
Relative FcgRIIaH-binding Activity [10]: 0.005
B18: IL6R-P782/IL6R-L (antibody, human IgG1, kappa)
heavy: B1 heavy with K241S, I266V, A269S, E270H, G273P, A329G, A332S, P333S
light: not shown

Relative FcgRIIb-binding Activity [1]: 55.5 IL6R-G1d/IL6R-L=100
B19: IL6R-P637/IL6R-L (antibody, human IgG1, kappa)
heavy: B1 heavy with K241S, A269Y
light: not shown

Relative FcgRIIb-binding Activity [1]: 176 IL6R-G1d/IL6R-L=100
Relative FcgRIIaR-binding Activity [2]: 69.5 IL6R-G1d/IL6R-L=100
B20: IL6R-P614/IL6R-L (antibody, human IgG1, kappa)
heavy: B1 heavy with L237A, G239D, K241S, Y298D, A332R, P398M
light: not shown

Relative FcgRIIb-binding Activity [1]: 6.5 IL6R-G1d/IL6R-L=100
Relative FcgRIIaR-binding Activity [2]: 2.8 IL6R-G1d/IL6R-L=100
B21: IL6R-P634/IL6R-L (antibody, human IgG1, kappa)
heavy: B1 heavy with K241S, D267V
light: not shown

Relative FcgRIIb-binding Activity [1]: 8 IL6R-G1d/IL6R-L=100
Relative FcgRIIaR-binding Activity [2]: 4.1 IL6R-G1d/IL6R-L=100
B22: IL6R-P632/IL6R-L (antibody, human IgG1, kappa)
heavy: B1 heavy with K241S, D267R
light: not shown

Relative FcgRIIb-binding Activity [1]: 89.2 IL6R-G1d/IL6R-L=100
Relative FcgRIIaR-binding Activity [2]: 41.8 IL6R-G1d/IL6R-L=100
B23: IL6R-P616/IL6R-L (antibody, human IgG1, kappa)
heavy: B1 heavy with L236A, L237A, K241S
light: not shown

Kd [3]: 2200 nM
Kd [4]: 88 nM
Kd [5]: 21 µM
Relative FcgRIIb-binding Activity [6]: 1
Relative FcgRIa-binding Activity [7]: 0.004
Relative FcgRIIIaV-binding Activity [8]: 0.01
Relative FcgRIIaR-binding Activity [9]: 0.05
Relative FcgRIIaH-binding Activity [10]: 0.007
B24: IL6R-P784/IL6R-L (antibody, human IgG1, kappa)
heavy: B1 heavy with G239D, K241S, I266V, A269S, E270H, G273P, A329G, A332S, P333S
light: not shown

Kd [3]: 3800 nM
Kd [4]: 160 nM
Kd [5]: 39 µM
Relative FcgRIIb-binding Activity [6]: 0.6
Relative FcgRIa-binding Activity [7]: 0.002
Relative FcgRIIIaV-binding Activity [8]: 0.006
Relative FcgRIIaR-binding Activity [9]: 0.03
Relative FcgRIIaH-binding Activity [10]: 0.006
B25: IL6R-P783/IL6R-L (antibody, human IgG1, kappa)
heavy: B1 heavy with D235E, G239D, K241S, I266V, A269S, E270H, G273P, A329G, A332S, P333S
light: not shown
